Literature values in publication PMC11145553.

Biological target: LRP1 (Homo sapiens) (UniProt Q07954)
Sequence (Q07954 20-4544): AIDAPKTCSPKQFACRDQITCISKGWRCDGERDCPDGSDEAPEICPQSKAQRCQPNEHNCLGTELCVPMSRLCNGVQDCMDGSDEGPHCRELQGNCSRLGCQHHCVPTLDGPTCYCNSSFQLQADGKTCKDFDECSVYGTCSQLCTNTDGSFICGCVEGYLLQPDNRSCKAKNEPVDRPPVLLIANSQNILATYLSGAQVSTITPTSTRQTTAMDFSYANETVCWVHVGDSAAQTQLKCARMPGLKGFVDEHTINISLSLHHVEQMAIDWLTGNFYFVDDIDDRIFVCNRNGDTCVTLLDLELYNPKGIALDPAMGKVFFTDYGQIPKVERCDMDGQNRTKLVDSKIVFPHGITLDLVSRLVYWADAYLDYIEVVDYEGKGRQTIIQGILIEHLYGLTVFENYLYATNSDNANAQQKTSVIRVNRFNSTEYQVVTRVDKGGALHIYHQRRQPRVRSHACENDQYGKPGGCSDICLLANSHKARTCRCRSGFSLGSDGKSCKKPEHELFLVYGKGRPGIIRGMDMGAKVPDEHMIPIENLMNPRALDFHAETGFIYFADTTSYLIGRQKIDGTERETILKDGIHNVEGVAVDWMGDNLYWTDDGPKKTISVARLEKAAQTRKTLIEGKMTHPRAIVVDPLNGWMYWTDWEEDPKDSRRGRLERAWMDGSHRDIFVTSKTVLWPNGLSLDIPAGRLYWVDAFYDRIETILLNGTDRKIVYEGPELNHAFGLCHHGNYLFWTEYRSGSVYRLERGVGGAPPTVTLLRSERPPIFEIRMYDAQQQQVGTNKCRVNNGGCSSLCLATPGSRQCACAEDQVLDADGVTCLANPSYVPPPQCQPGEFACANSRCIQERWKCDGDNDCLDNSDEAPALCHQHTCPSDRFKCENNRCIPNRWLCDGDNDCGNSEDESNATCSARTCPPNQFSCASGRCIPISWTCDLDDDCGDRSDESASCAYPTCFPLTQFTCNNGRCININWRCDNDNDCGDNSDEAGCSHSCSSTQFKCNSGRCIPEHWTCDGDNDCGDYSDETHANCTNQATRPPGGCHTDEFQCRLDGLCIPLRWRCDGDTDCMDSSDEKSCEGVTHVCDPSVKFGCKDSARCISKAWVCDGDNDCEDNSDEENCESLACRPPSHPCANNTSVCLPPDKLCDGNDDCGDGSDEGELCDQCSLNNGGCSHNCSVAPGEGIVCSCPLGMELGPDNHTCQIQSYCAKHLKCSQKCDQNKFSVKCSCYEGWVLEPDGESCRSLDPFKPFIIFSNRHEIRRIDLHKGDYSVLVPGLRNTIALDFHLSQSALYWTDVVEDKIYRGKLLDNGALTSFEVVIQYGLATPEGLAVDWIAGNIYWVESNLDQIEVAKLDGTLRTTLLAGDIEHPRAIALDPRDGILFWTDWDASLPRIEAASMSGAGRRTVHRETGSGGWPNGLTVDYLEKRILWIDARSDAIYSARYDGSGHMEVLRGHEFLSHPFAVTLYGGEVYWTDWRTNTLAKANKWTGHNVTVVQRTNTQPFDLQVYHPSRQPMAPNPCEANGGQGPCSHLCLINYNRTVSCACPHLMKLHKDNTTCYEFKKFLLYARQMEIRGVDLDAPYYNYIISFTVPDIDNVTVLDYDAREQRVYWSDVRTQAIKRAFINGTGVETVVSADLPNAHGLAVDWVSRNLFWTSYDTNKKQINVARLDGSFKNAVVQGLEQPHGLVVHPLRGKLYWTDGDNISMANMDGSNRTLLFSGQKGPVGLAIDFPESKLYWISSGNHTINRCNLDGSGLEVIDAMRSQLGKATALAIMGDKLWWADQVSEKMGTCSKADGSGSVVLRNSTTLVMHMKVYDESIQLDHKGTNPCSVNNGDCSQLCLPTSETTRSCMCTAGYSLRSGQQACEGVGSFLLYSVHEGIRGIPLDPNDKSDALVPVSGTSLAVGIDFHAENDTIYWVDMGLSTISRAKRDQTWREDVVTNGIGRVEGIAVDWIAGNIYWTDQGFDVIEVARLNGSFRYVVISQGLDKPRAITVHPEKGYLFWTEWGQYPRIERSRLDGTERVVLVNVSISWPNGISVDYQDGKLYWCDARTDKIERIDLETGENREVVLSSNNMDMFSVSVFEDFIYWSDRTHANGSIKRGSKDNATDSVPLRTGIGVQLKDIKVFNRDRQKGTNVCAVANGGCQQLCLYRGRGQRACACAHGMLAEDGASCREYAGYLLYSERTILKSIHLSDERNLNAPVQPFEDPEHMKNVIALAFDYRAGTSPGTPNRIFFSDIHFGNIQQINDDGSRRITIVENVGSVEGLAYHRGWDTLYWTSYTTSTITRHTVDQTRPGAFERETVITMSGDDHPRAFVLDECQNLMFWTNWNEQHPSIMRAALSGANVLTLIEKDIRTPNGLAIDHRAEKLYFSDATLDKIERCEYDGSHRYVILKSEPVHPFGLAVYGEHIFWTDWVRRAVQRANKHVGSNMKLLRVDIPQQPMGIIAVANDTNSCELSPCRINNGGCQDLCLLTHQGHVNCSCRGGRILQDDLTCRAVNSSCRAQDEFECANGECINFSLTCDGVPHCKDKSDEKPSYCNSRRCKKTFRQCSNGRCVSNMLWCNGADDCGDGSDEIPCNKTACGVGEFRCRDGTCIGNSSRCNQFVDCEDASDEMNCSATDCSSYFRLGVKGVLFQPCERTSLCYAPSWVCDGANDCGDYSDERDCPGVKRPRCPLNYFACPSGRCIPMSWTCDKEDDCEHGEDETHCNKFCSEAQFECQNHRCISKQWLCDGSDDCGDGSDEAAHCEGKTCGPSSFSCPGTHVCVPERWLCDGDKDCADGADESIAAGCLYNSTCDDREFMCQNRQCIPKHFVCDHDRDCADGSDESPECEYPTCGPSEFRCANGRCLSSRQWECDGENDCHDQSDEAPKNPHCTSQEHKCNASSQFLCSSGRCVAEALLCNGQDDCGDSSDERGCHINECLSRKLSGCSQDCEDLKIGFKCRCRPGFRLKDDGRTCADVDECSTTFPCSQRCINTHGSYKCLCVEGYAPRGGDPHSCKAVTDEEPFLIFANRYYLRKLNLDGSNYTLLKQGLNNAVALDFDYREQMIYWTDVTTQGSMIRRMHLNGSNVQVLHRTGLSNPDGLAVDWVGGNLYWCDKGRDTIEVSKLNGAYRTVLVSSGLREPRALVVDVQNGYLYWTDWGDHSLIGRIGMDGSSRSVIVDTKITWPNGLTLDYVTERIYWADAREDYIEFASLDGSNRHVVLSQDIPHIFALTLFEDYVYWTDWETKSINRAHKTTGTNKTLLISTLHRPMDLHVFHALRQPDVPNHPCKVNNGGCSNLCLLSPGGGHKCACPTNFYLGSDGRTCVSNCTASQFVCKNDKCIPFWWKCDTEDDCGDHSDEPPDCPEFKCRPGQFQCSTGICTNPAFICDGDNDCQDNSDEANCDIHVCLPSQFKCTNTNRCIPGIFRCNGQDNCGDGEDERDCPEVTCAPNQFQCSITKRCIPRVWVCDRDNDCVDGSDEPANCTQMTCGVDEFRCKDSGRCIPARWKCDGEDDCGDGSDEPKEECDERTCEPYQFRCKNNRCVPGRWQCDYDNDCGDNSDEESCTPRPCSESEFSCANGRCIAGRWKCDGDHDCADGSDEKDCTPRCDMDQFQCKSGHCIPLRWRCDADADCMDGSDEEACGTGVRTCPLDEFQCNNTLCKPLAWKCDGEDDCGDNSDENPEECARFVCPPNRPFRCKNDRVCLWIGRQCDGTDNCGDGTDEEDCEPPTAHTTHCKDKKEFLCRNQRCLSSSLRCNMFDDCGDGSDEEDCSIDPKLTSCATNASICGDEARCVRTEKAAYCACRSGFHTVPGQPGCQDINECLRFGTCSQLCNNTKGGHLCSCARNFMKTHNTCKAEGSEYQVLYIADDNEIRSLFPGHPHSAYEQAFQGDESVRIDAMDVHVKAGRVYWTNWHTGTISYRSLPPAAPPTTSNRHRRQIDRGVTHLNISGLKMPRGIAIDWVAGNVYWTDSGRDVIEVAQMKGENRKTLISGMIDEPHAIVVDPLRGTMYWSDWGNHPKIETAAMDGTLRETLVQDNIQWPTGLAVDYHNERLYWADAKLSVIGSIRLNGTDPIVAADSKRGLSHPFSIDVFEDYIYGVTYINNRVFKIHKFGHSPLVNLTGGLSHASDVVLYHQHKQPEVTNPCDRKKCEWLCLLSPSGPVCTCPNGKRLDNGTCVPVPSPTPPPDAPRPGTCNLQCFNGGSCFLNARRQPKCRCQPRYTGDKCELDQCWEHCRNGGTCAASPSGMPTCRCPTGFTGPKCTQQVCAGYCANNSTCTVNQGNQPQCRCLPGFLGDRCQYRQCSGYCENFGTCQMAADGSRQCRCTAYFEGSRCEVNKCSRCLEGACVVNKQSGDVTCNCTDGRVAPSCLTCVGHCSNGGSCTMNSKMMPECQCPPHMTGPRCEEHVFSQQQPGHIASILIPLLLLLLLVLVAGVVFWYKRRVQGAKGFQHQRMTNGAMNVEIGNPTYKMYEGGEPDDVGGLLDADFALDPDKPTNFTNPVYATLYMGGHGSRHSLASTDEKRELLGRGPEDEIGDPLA

Kd: 60 nM
Substance: 2N4R tau (from UniProt P10636)
